Measured values: publication PMC4148193, “Chromatin Insulator Factors Involved in Long-Range DNA Interactions and Their Role in the Folding of the Drosophila Genome” (PLoS Genetics, 2014)

Legend:
[1] = target: T1, BEAF32 (BEAF32B);CP190 (Drosophila;Drosophila, UniProt Q94513;Q24478 1-282;1-1096, |); test: FCS/PIE-FCCS; 400 nM BEAF32, 50 nM CP190; cross-correlation 18±6%, 65±22% of complexes bridged; FA/FCS: 30 mM Tris/HCl pH 7.5, 100 mM NaCl, 20 uM ZnSO4, 5 mM mercaptoethanol, 0.01 mg/ml BSA, 0.004% Tween20, 2.5 nM DNA; EMSA: 150 mM NaCl, 30 mM Tris/HCl pH; conditions: protein: recombinant;recombinant; tags: N-term MBP; C-term 6xHis;N-term 6xHis; blunt
T1 sequence 1: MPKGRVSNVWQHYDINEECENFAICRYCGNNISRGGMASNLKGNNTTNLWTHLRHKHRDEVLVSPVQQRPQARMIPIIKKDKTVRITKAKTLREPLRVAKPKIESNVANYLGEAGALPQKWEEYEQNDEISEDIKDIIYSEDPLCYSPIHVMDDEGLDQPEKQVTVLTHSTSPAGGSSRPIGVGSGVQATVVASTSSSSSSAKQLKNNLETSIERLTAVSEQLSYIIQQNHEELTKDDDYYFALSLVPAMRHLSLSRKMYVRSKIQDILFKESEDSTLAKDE
T1 sequence 2: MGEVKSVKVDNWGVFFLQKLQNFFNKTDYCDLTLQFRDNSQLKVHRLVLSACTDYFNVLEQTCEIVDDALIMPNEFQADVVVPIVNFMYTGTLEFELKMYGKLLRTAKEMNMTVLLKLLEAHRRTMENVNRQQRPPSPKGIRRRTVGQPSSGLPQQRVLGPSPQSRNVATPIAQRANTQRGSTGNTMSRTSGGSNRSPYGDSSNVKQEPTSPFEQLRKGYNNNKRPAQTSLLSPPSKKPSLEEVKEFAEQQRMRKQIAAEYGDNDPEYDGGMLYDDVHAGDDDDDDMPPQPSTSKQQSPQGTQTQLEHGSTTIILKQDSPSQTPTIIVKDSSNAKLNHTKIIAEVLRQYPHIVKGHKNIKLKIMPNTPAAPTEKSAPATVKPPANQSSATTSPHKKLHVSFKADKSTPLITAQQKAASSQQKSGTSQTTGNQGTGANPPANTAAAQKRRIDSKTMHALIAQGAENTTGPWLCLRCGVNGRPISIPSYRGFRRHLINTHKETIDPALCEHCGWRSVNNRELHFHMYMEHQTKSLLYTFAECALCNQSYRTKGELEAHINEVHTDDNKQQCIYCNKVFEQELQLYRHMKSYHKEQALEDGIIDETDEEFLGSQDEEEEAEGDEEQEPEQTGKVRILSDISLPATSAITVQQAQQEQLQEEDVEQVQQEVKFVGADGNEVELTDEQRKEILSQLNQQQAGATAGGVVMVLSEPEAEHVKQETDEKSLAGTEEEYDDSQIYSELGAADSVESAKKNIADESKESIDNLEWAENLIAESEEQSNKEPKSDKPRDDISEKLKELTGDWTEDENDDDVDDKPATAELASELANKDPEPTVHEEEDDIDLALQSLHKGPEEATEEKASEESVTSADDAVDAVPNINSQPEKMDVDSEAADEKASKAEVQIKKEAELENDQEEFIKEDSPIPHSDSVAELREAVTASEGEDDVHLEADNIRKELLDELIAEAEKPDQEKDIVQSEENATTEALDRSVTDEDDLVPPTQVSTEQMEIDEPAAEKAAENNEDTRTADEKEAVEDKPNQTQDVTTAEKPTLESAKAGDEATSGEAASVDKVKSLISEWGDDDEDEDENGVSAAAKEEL

[2] = target: T2, BEAF32 (BEAF32B);CP190-C (Drosophila;Drosophila, UniProt Q94513;Q24478 1-282;599-1096, |); test: FCS/PIE-FCCS; 400 nM BEAF32, 50 nM CP190-C; diffusion time slightly decreased, BEAF32 stays bound, no bridging; FA/FCS: 30 mM Tris/HCl pH 7.5, 100 mM NaCl, 20 uM ZnSO4, 5 mM mercaptoethanol, 0.01 mg/ml BSA, 0.004% Tween20, 2.5 nM DNA; EMSA: 150 mM NaCl, 30 mM Tris/HCl pH; conditions: protein: recombinant;recombinant; tags: N-term MBP; C-term 6xHis;N-term 6xHis; blunt
T2 sequence 1: T1 sequence 1
T2 sequence 2: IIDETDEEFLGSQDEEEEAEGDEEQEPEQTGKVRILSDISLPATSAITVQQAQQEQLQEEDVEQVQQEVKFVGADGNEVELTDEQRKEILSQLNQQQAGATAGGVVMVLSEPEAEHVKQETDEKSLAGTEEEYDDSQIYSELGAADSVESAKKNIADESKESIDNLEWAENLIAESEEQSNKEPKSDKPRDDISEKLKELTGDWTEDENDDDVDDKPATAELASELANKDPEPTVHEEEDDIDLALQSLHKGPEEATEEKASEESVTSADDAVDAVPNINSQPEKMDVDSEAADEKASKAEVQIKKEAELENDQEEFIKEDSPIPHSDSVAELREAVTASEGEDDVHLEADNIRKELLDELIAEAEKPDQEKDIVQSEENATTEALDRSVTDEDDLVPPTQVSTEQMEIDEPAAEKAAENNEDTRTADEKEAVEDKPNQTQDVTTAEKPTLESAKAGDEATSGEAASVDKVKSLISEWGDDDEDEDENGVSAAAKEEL

B1: DNAS (dsDNA)
DNA 1: AGAAGTCAGCGCGATAGCATCGATATTTTCGTGACACGCTTGTCATCCGATAGGTAGT
DNA 2: ACTACCTATCGGATGACAAGCGTGTCACGAAAATATCGATGCTATCGCGCTGACTTCT
binding result [1]: binds
binding result [2]: binds
